Assay results as given in patent US20100081612A1 (GENERAL HOSPITAL, published 2010).
Where two headings read alike, the source gives them in different places. Where no end group is shown, it is not given here. [ ]: non-standard residue; d: D form. Cha = N[C@@H](CC1CCCCC1)C(=O)O; Orn = NCCC[C@H](N)C(=O)O

T1: rat PTHR endogenously expressed in ROS 17/2.8 cells (rat, UniProt P25961 27-591)
T1 construct: whole, on cells; also called endogenous PTHR; PTHR in ROS 17/2.8 cells
T1 sequence (looked up): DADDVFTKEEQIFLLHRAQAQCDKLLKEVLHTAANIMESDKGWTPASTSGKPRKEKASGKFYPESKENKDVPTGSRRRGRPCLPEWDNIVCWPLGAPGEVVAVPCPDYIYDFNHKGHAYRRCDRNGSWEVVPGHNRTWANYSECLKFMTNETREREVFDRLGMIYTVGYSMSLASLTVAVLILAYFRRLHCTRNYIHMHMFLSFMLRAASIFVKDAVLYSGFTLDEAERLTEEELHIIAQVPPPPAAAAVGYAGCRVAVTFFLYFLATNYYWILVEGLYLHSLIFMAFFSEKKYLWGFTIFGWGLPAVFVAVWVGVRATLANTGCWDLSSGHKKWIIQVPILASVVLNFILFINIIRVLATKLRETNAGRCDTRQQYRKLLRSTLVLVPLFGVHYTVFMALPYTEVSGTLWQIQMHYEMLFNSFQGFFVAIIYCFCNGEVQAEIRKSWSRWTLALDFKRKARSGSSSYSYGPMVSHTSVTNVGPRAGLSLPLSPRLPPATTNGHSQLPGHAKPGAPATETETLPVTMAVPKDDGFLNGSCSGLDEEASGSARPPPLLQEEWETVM

T2: wild-type human PTHR (human, UniProt Q03431 27-593)
T2 construct: whole, on cells; also called PTHR-WT; intact PTHR
T2 sequence (looked up): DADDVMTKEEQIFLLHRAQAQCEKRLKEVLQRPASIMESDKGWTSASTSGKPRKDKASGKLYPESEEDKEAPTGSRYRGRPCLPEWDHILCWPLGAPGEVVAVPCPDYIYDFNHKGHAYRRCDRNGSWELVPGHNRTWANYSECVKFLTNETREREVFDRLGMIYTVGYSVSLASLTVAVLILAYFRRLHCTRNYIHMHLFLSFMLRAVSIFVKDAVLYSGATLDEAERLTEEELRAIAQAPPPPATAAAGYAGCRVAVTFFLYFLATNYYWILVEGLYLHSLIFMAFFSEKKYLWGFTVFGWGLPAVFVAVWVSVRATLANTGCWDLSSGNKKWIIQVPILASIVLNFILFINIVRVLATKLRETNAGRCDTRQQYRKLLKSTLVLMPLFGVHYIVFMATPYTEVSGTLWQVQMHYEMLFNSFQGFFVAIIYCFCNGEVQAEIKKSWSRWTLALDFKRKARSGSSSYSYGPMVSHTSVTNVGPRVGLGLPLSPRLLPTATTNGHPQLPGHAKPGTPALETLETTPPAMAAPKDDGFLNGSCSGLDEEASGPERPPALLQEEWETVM


Legend:
[1] = target: PTHR-delNt (human) (UniProt Q03431); assay: competition binding, COS-7 membranes, 125I-[Aib1,3,M]PTH(1-15) tracer
[2] = target: T1, rat PTHR endogenously expressed in ROS …; assay: competition binding, ROS 17/2.8 cells, 125I-PTH(1-34) tracer
Procedure: Receptor binding—Binding to the wild-type human PTHR in intact HKRK-B7 cells and ROS 17/2.8 cells was assessed using ¹²⁵I-PTH(1-34) as a tracer radioligand, as described (Shimizu, M., (2001) Endocrinology 142:3068-3074). In brief, the cells in 24-well plates (about 500,000 cells per well) were incubated in binding buffer containing radioligand (about 100,000 cpm per well) with or without unlabeled peptide ligand (3×10⁻⁹ to 1×10⁻⁵ M) for four hours at 15° C. The binding mixture was then removed by aspiration, the cells were rinsed three times with binding buffer, lysed in 1 M NaOH, and the entire lysate was counted for gamma-irradiation in a gamma counter. Binding to PTHR-delNt in COS-7 cell membranes was assessed in 96-well, vacuum filtration plates (Multiscreen-Durapore HV, […], Millipore Corp., Millford, Mass.) using ¹²⁵I-[Aib^{1,3},M]PTH(1-15)NH₂ as a tracer radioligand, as described (Dean, T., (2006) Mol Endocrinol 20:931-942). In brief, cell membranes (20 μg/well) were incubated in membrane binding buffer containing radioligand (30,000 cpm/well) with or without unlabeled peptide ligand (3×10⁻⁹ to 1×10⁻⁵ M) for 90 minutes at 21° C. The plates were then subject to rapid vacuum filtration, the filters were washed once with buffer, detached from the plate and counted for gamma-irradiation in a gamma counter. Non-specific binding was defined as the binding observed in the presence of 1×10⁻⁶ M PTH(1-31)NH₂ for HKRK-B7 and ROS 17/2.8 cells, and 1×10⁻⁶ M [Aib^{1,3},M]PTH(1-15)NH₂ for PTHR-delNt. Specifically bound radioactivity was calculated as a percentage of the radioactivity specifically bound in the absence of competing ligand.
Effects on cAMP and IP signaling—Selected analogs of [Ala¹,Arg¹⁹]hPTH(1-31)NH₂ with substitutions that markedly impaired binding to HKRK-B7 cells were assessed for their capacity to bind to the PTHR in ROS 17/2.8 cells and to stimulate cAMP-signaling responses in these cells. These bone-derived cells endogenously express the rat PTHR at a more physiological level than is found in HKRK-B7 cells (approximately 80,000 PTHRs per cell vs. 950,000 PTHRs per cell) and, have generally been found (data not shown) to yield closer correlations between PTH analog binding affinity and cAMP-signaling potency than do HKRK-B7 cells, presumably due to their lower PTHR expression level.

[3] = target: T2, wild-type human PTHR; assay: competition binding, HKRK-B7 cells, 125I-PTH(1-34) tracer
How it was run: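 Intact HKRK-B7 cells stably expressing hPTHR incubated 4 h at 15° C with ¹²⁵I-PTH(1-34) tracer and unlabeled peptide (3×10⁻⁹ to 1×10⁻⁵ M). Nonspecific binding defined with 1×10⁻⁶ M PTH(1-31)NH₂. Bound activity counted after lysis and expressed as % specific binding without competitor; values in nM, mean ± s.e.m.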

[4] = target: T1, rat PTHR endogenously expressed in ROS …; assay: cell-based or functional assay
[5] = target: T2, wild-type human PTHR; assay: competition binding, HKRK-B7 cells, 125I-PTH(1-34) tracer; remark: listed apart in the source
[6] = target: PTHR-delNt (human) (UniProt Q03431); assay: competition binding, COS-7 membranes, 125I-[Aib1,3,M]PTH(1-15) tracer; remark: listed apart in the source
[7] = target: T2, wild-type human PTHR; assay: competition binding, HKRK-B7 cells, 125I-PTH(1-34) tracer

Binder	IC50 [1] [nM]	fold change in binding affinity vs [Ala^1,Arg^19]PTH(1-31)NH2 [1] [fold]	IC50 [2] [nM]	IC50 [3] [nM]	cAMP EC50, ROS 17/2.8 cells [4] [nM]	fold reduction in binding affinity vs [Ala^1,Arg^19]PTH(1-31)NH2 [5] [fold]	fold reduction in binding vs [Ala^1,Arg^19]PTH(1-31)NH2 [5] [fold]	fold reduction in binding affinity vs [Ala^1,Arg^19]PTH(1-31)NH2 [1] [fold]	fold reduction in binding affinity vs [Ala^1,Arg^19]PTH(1-31)NH2 [6] [fold]	fold difference of IC50 from PTH(1-31)NH2 [1] [fold]	IC50 [7] [nM]
AVSEIQLMHNLGKHLNSMRRVEW[Cha]RKKLQDV-NH2 (N-terminus assumed; SMILES CC[C@H](C)[C@H](NC(=O)[C@H](CCC(=O)O)NC(=O)[C@H](CO)NC(=O)[C@@H](NC(=O)[C@H](C)N)C(C)C)C(=O)N[C@@H](CCC(N)=O)C(=O)N[C@@H](CC(C)C)C(=O)N[C@@H](CCSC)C(=O)N[C@@H](Cc1c[nH]cn1)C(=O)N[C@@H](CC(N)=O)C(=O)N[C@@H](CC(C)C)C(=O)NCC(=O)N[C@@H](CCCCN)C(=O)N[C@@H](Cc1c[nH]cn1)C(=O)N[C@@H](CC(C)C)C(=O)N[C@@H](CC(N)=O)C(=O)N[C@@H](CO)C(=O)N[C@@H](CCSC)C(=O)N[C@@H](CCCNC(=N)N)C(=O)N[C@@H](CCCNC(=N)N)C(=O)N[C@H](C(=O)N[C@@H](CCC(=O)O)C(=O)N[C@@H](Cc1c[nH]c2ccccc12)C(=O)N[C@@H](CC1CCCCC1)C(=O)N[C@@H](CCCNC(=N)N)C(=O)N[C@@H](CCCCN)C(=O)N[C@@H](CCCCN)C(=O)N[C@@H](CC(C)C)C(=O)N[C@@H](CCC(N)=O)C(=O)N[C@@H](CC(=O)O)C(=O)N[C@H](C(N)=O)C(C)C)C(C)C) [[Ala^1,Arg^19]hPTH(1-31)NH2 Leu^24→Cha]	283	< 3	7.3	436	0.83	11	~12				
AVSEIQLMHNLGKHLNSMERVEWLRKKLQDV-NH2 [[Ala^1,Arg^19]hPTH(1-31)NH2 Arg^19→Glu]	18900			125				50	90		
SVSEIQLMHNLGKHLNSME[Orn]VEWLRKKLQDV-NH2 (N-terminus assumed; SMILES CC[C@H](C)[C@H](NC(=O)[C@H](CCC(=O)O)NC(=O)[C@H](CO)NC(=O)[C@@H](NC(=O)[C@@H](N)CO)C(C)C)C(=O)N[C@@H](CCC(N)=O)C(=O)N[C@@H](CC(C)C)C(=O)N[C@@H](CCSC)C(=O)N[C@@H](Cc1c[nH]cn1)C(=O)N[C@@H](CC(N)=O)C(=O)N[C@@H](CC(C)C)C(=O)NCC(=O)N[C@@H](CCCCN)C(=O)N[C@@H](Cc1c[nH]cn1)C(=O)N[C@@H](CC(C)C)C(=O)N[C@@H](CC(N)=O)C(=O)N[C@@H](CO)C(=O)N[C@@H](CCSC)C(=O)N[C@@H](CCC(=O)O)C(=O)N[C@@H](CCCN)C(=O)N[C@H](C(=O)N[C@@H](CCC(=O)O)C(=O)N[C@@H](Cc1c[nH]c2ccccc12)C(=O)N[C@@H](CC(C)C)C(=O)N[C@@H](CCCNC(=N)N)C(=O)N[C@@H](CCCCN)C(=O)N[C@@H](CCCCN)C(=O)N[C@@H](CC(C)C)C(=O)N[C@@H](CCC(N)=O)C(=O)N[C@@H](CC(=O)O)C(=O)N[C@H](C(N)=O)C(C)C)C(C)C) [PTH(1-31)NH2 Arg^20→Orn]	5530									< 4	> 10000
